Experimental data: IntAct's records for PubMed 17805295

Biological target: Cdh23, Q99PF4-1
Sequence (Q99PF4 whole entry): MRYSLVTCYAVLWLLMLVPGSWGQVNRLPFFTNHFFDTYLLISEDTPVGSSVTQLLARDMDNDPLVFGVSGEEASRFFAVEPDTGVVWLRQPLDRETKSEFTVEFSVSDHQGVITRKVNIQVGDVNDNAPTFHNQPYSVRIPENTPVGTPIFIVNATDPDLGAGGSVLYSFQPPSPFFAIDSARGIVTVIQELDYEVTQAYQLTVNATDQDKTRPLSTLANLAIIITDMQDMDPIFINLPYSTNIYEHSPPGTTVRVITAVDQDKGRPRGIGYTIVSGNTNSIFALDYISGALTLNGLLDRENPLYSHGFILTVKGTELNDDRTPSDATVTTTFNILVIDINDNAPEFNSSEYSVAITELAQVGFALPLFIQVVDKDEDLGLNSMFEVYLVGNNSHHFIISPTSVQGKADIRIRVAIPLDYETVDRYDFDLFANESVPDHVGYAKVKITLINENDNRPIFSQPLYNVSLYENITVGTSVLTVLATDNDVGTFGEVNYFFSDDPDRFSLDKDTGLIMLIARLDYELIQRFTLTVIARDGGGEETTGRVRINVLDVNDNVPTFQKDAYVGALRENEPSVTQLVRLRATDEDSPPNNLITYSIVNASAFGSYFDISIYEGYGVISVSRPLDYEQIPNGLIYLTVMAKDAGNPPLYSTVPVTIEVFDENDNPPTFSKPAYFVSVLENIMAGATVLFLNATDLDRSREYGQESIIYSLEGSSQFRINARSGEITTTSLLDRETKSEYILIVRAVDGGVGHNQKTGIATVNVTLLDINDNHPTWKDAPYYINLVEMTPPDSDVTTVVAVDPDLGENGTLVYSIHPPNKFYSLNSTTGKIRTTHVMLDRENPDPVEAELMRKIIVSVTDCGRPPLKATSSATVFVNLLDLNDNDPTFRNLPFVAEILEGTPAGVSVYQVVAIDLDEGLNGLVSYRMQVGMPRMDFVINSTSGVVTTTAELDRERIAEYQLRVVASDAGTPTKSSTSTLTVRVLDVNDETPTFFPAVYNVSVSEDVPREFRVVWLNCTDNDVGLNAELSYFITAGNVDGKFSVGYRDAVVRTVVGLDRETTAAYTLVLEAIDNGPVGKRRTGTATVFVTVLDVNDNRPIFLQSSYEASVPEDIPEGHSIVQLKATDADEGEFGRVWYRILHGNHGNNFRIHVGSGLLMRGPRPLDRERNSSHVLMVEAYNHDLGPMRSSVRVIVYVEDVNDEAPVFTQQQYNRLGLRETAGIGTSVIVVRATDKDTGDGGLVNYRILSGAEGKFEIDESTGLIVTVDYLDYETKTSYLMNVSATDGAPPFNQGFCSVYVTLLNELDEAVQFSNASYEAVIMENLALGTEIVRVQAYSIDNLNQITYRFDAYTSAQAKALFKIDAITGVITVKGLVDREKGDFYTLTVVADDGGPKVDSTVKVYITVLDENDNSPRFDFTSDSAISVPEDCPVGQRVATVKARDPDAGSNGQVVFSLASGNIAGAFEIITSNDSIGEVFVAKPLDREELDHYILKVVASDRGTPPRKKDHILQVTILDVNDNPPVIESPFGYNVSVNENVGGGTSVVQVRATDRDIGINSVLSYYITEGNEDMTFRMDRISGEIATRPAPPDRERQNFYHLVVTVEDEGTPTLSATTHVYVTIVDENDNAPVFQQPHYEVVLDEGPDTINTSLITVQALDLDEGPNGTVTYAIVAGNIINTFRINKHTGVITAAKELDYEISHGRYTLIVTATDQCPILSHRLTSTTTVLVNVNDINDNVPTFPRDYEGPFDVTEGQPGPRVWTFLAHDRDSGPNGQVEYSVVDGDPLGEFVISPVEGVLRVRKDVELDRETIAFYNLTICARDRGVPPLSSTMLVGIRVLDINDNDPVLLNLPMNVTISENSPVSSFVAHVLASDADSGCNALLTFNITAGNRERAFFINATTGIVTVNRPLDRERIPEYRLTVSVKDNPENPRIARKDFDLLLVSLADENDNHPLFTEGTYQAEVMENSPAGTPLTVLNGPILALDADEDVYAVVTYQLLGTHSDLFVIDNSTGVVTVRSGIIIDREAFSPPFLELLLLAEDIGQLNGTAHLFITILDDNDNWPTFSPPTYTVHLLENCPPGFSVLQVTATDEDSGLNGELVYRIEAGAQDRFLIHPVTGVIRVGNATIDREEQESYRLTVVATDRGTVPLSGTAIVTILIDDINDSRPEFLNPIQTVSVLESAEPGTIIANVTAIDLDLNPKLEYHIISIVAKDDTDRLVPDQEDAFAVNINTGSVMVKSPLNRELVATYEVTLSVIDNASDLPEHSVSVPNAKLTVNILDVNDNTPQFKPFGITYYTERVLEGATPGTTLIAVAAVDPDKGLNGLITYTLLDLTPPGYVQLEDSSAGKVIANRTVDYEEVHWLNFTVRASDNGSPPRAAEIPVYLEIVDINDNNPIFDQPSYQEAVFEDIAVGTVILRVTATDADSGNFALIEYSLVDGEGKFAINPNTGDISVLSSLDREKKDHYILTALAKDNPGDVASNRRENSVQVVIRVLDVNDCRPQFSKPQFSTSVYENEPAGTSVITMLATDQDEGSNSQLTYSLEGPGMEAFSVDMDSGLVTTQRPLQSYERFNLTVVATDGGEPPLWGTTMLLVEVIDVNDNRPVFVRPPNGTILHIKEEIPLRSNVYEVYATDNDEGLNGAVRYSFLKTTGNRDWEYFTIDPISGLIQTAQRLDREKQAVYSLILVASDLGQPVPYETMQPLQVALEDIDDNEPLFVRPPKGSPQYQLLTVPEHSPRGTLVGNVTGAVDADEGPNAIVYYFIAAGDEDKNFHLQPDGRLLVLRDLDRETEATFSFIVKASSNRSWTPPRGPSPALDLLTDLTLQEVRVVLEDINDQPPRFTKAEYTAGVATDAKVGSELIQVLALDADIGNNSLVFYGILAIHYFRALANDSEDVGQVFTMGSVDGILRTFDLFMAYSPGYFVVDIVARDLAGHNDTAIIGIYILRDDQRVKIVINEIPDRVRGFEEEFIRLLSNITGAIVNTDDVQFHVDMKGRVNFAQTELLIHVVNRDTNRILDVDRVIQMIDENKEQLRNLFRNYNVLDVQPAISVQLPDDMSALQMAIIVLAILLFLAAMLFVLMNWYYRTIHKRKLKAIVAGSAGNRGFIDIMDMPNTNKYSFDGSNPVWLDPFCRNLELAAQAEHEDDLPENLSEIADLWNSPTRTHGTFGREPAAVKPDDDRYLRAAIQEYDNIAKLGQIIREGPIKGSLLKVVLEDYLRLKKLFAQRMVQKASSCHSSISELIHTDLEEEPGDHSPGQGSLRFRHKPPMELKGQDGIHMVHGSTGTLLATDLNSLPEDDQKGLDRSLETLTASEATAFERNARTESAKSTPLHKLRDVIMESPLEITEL

## Protocadherin-15 (Mus musculus), Q99PJ1 R139G
  effect of a mutation on the interaction: disrupting interaction strength
